Results from the supplement of paper PMC12042874.
± gives the uncertainty stated by the source.

Experiment: amyloid nucleation score (Sup35N fusion, yeast selection) (log enrichment); library NNK1; higher = more nucleation; inactive = no reads after selection
Summary of the method: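 Output and input plasmid inserts were sequenced by Illumina after psi-negative yeast carrying Sup35N fused to peptides of 20 random codons had been induced 24 hours with 100 μM copper sulfate and grown 7 days at 30°C on medium lacking adenine and uracil. The nucleation score is the DiMSum log enrichment of output over input reads, centred on the mode score of non-aggregating sequences. Sequences with under 100 input reads were excluded.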
For FHCTNSMVMLGRHATMLFFY, the amyloid nucleation score was 5.92 ± 0.095.
In the case of FHIQEANIFRE, the amyloid nucleation score is reported as -0.17 ± 0.24.
FHLVRGCIFITCKYVGRGIV showed an amyloid nucleation score of 1.32 ± 0.57.
Substance FHMENALISLGCSSGLRQMA has an amyloid nucleation score of 0.803 ± 0.54.
Work on FHMPYLCNAKWRECLGFSAH yielded an amyloid nucleation score of 0.279 ± 1.4.
For FHTLDVCPGRVLNLYNVKVW, the amyloid nucleation score was -0.427 ± 1.
In the case of FHVIGSARTLVVAQYLK, the amyloid nucleation score is reported as “inactive”.
Work on FHWVGVSYQLKMRRVKPKGV yielded an amyloid nucleation score of -0.441 ± 1.1.
In the case of FIFHSIGRSKISYKS, the amyloid nucleation score is reported as -0.229 ± 0.59.
For FIFPAHCSLRSIDFSQGYIR, the amyloid nucleation score was -0.321 ± 0.36.
In the case of FIIEQANGQGYNYLHI, the amyloid nucleation score is reported as -0.481 ± 0.48.
Substance FIIVEECNFRNRRLTYRLFI has an amyloid nucleation score of 0.816 ± 0.49.
With FILIYTAPFIGGLVGLGDGH the amyloid nucleation score was “inactive”.
For FISCCARIFTTCGIAD, the amyloid nucleation score was 1.19 ± 0.14.
In the case of FIWDAWLGRKVSESHTVFHS, the amyloid nucleation score is reported as 0.017 ± 0.21.
FIYFYGRYNSSGDPFQVFLG showed an amyloid nucleation score of -0.578 ± 0.34.
FKLWQVFRKSSMFQRGWGIG showed an amyloid nucleation score of 0.462 ± 0.78.
For FKPEKRLGATG, the amyloid nucleation score was 0.694 ± 0.45.
Work on FKRRLGCLKPRNY yielded an amyloid nucleation score of -0.333 ± 0.52.
Substance FKRSLRCLYVVACNALYWDA has an amyloid nucleation score of -0.026 ± 0.51.
FKSTPVFKQWRNGGTDGLTG gave an amyloid nucleation score of -0.958 ± 1.5.
Substance FKSYWGSTWRSNSWVGDMRG has an amyloid nucleation score of -0.225 ± 0.46.
With FKYTHIETVIQVLYFRTWSY the amyloid nucleation score was -0.485 ± 0.33.
FLCPRSCHGPNTFDFIMWSF gave an amyloid nucleation score of 0.198 ± 0.66.
FLCSIISYS showed an amyloid nucleation score of 5.572 ± 0.048.
For FLEKSFLCSWSLVRTEGEWA, the amyloid nucleation score was -0.333 ± 0.57.
FLGMIFTELSINMKVSRRP gave an amyloid nucleation score of -1.12 ± 1.2.
FLHFMVY showed an amyloid nucleation score of 0.027 ± 0.64.
With FLIIIRPISRRTCRVCFKQT the amyloid nucleation score was -0.246 ± 0.44.
With FLLESL the amyloid nucleation score was “inactive”.
FLLIVVCWDLRLSSFHKLYF gave an amyloid nucleation score of 0.657 ± 0.73.
For FLMWMWLVSNRKHWLFTDKV, the amyloid nucleation score was -2.54 ± 2.7.
FLNNLAGWGYPCFTGVYANA gave an amyloid nucleation score of -0.195 ± 0.39.
FLNRYICKFDKVSQHGVRLW showed an amyloid nucleation score of 0.261 ± 0.84.
FLQRIKNHAVSAGWIYSLSK showed an amyloid nucleation score of 0.106 ± 0.43.
For FLRELMRCIGASSTFLGVEK, the amyloid nucleation score was -0.204 ± 0.29.
FLRFIRSVNFYVKEYAESLL showed an amyloid nucleation score of -0.691 ± 0.52.
FLSLFVSVV gave an amyloid nucleation score of -0.18 ± 0.97.
Work on FLTLCVLNRLWH yielded an amyloid nucleation score of 4.85 ± 0.11.
Substance FLTSECSTSSLHS has an amyloid nucleation score of 0.56 ± 0.85.
For FLVCLFINVVTPRTYHLWVY, the amyloid nucleation score was -0.174 ± 0.49.
In the case of FLVKSIRTVGL, the amyloid nucleation score is reported as 0.605 ± 0.36.
FLVPEVEKIFNIRVLEVRLM showed an amyloid nucleation score of -0.834 ± 0.6.
Work on FLVQNRRISEVIELWALLS yielded an amyloid nucleation score of -1.19 ± 2.7.
Substance FLYVVARY has an amyloid nucleation score of 0.19 ± 0.71.
Work on FLYWLVDKLG yielded an amyloid nucleation score of 0.37 ± 0.51.
In the case of FMCIPV, the amyloid nucleation score is reported as 0.189 ± 0.55.
With FMFYTYHVNSYFSILCSVSN the amyloid nucleation score was 0.655 ± 0.46.
In the case of FMGVINGEITLVNSFVTYMR, the amyloid nucleation score is reported as 7.768 ± 0.051.
FMQLTYRMCGSPSIRVNGVL gave an amyloid nucleation score of 0.685 ± 0.34.
Work on FMRDCSYI yielded an amyloid nucleation score of 0.687 ± 0.79.
In the case of FMRSATCKVWNL, the amyloid nucleation score is reported as -0.079 ± 0.51.
Substance FMSYLNYRQCPPVLDEEVVP has an amyloid nucleation score of 0.241 ± 1.
Substance FNCLMALIFPDVLDCSYSVD has an amyloid nucleation score of 1.26 ± 0.9.
Work on FNDFSLSYARFCINSMNRYP yielded an amyloid nucleation score of 0.968 ± 0.13.
Work on FNFNFRRFYHVRGFDSRSHL yielded an amyloid nucleation score of 0.473 ± 0.58.
In the case of FNIIASPSWVSVRNHGNLWV, the amyloid nucleation score is reported as 4.91 ± 0.062.
FNITYCFRSFSTSVDNGF showed an amyloid nucleation score of 0.436 ± 0.55.
Substance FNKTSMVSGNQLRVLVLVNI has an amyloid nucleation score of 1.08 ± 0.59.
Substance FNLRTIARDL has an amyloid nucleation score of -1.68 ± 0.97.
FNLSVKAY showed an amyloid nucleation score of -0.581 ± 1.6.
In the case of FNNPKCHSWLDRMVWLMWLA, the amyloid nucleation score is reported as 0.343 ± 0.61.
In the case of FNSRGSVSNL, the amyloid nucleation score is reported as 0.821 ± 1.1.
FNSRTAGCRLSTQMFSRKQT gave an amyloid nucleation score of 0.402 ± 0.92.
Substance FNWMRP has an amyloid nucleation score of 0.706 ± 0.31.
FNYLICAVDSRTLNSW gave an amyloid nucleation score of 4.7 ± 0.05.
FPDMCILRILYVKVLV showed an amyloid nucleation score of -1.52 ± 1.6.
In the case of FPYILMKRAKQYALGPRHLL, the amyloid nucleation score is reported as -0.435 ± 0.32.
In the case of FQNELCKTDIWFRVREWESE, the amyloid nucleation score is reported as 0.196 ± 1.2.
Work on FRCLRTRSCLQWAQGLGAEA yielded an amyloid nucleation score of 0.596 ± 0.47.
With FRDSTET the amyloid nucleation score was 0.495 ± 1.4.
FRGFR showed an amyloid nucleation score of -0.235 ± 0.4.
In the case of FRLLGLTR, the amyloid nucleation score is reported as 0.087 ± 0.62.
FRLMPEYVATYMLSLRMCQC showed an amyloid nucleation score of -0.565 ± 1.2.
For FRLTLGIVVLLVGK, the amyloid nucleation score was “inactive”.
Work on FRMNRKVRC yielded an amyloid nucleation score of 0.082 ± 0.29.
For FRSAKAIMLEVN, the amyloid nucleation score was 0.048 ± 0.41.
FRSFNGTCSGVQWSVFVIWV gave an amyloid nucleation score of -0.18 ± 0.77.
Substance FRSGYRLACSAMSIAFCIYE has an amyloid nucleation score of 0.341 ± 0.48.
In the case of FRSLMLLDFTYHVVSGLRYK, the amyloid nucleation score is reported as -0.609 ± 1.9.
FRWTLTSLRSVNDFSG showed an amyloid nucleation score of 0.948 ± 0.65.
Substance FSCKSAPQFCRWG has an amyloid nucleation score of 0.718 ± 0.42.
In the case of FSFGIVSVMGYVLYRRRPWA, the amyloid nucleation score is reported as 1.08 ± 0.63.
In the case of FSFLHLVGRWGLIVSNCSDV, the amyloid nucleation score is reported as -0.355 ± 0.64.
FSKAMNFRDRTSSQSQ gave an amyloid nucleation score of -0.581 ± 1.2.
Substance FSLFDGMVLVNS has an amyloid nucleation score of -0.281 ± 0.39.
